Experimental data published in article PMC3179463.

Legend:
[1] = molecular target: MALT1 tandem Ig-like domains (IgL1–IgL2) (human); test: SEC; Superdex-200 16/60, 10 mg/mL protein, Tris buffer pH 8.0 (50 mM in the methods, 20 mM in the legend), 500 mM NaCl, 1 mM TCEP, 4°C; mass estimated from standard proteins
[2] = molecular target: MALT1 tandem Ig-like domains (IgL1–IgL2) (human); test: AUC; sedimentation equilibrium, Beckman Optima XL-A, An-60 Ti rotor; 20 mM Tris-HCl pH 8, 200 mM NaCl, 1 mM TCEP; 12,000 and 15,000 rpm, 4°C; 0.25, 0.5 and 1.0 mg/ml; global self-association fit

“MALT1 tandem Ig-like domains (IgL1–IgL2) (domain or fragment)” was tested. Which stoichiometry N [1] did it give?
Its stoichiometry N is 4.

What about the stoichiometry N [2] of the same substance?
The stoichiometry N was 3.5.
